Consider nine molecules from PMC11116469.

The target of test [1] is FUS 6F-G variant (Phe residues of the RBD substituted to Gly) (UniProt P35637). The test is described as follows: DLS. To be noted: 10 µM FUS (RBD, F/Y-G/S), read off a plot.
Test [2] addresses FUS 6Y-S variant (Tyr residues of the RBD substituted to Ser) (UniProt P35637). As to the kind of experiment: DLS. The following applies: 10 µM FUS (RBD, F/Y-G/S), read off a plot.
The target of test [3] is FUS (10D/4E-G) variant (10 Asp and 4 Glu of the RBD substituted to Gly) (UniProt P35637). The test is described as follows: DLS. The following applies: 250 nM FUS (RBD, D/E-G), read off a plot.
The target in test [4] is FUS(Y-S) with 10 Tyr of the PLCD substituted to Ser (UniProt P35637). As to the kind of experiment: DLS. The following applies: 10 µM FUS (PLD, Y-S), read off a plot.
Test [5] has as its target FUS(Y-S) with 18 Tyr of the PLCD substituted to Ser (UniProt P35637). As to the kind of experiment: DLS. The following applies: 10 µM FUS (PLD, Y-S), read off a plot.
The target of test [6] is FUS(R-G) with 24 Arg of the RBD substituted to Gly (UniProt P35637). The test is described as follows: DLS. The following applies: 10 µM FUS (RBD, R-G), read off a plot.
Test [7] addresses FUS(R-K) with 24 Arg of the RBD substituted to Lys (UniProt P35637). As to the kind of experiment: DLS. To be noted: read off a plot.
Test [8] addresses FUS(Y-S) with 27 Tyr of the PLCD substituted to Ser (UniProt P35637). As to the kind of experiment: DLS. To be noted: 10 µM FUS (PLD, Y-S), read off a plot.
The target in test [9] is T1, SNAP-tagged FUS (Fused in Sarcoma), P35637.
T1 chain: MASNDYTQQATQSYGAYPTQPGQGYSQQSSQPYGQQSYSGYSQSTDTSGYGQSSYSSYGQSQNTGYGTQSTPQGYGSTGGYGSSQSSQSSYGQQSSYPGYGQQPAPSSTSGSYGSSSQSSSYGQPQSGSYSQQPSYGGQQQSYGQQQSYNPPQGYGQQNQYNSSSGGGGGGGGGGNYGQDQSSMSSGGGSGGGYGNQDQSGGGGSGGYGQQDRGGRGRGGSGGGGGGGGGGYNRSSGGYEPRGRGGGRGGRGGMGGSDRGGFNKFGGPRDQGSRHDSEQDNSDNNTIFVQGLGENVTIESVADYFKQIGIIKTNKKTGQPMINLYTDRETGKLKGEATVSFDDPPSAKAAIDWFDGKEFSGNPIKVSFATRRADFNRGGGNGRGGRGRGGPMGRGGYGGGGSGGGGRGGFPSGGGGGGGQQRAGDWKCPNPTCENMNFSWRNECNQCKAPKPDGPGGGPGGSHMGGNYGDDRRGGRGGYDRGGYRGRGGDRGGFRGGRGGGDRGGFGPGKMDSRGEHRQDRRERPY
As to the kind of experiment: nanoparticle tracking analysis (NTA); sub-saturated solutions of one protein in 100 mM KCl and 100 mM KGlu, 25 °C, recorded 6 min after preparation; abundance of mesoscale clusters. To be noted: remark: other sources report otherwise.

Turning to wild-type FUS 6F-G, the response came to 1.2 Mcps in [1] (KCl buffer) and 1.7 Mcps in test [1] (KGlu buffer).
In the case of wild-type FUS 6Y-S, the response in test [2] (KCl buffer) is 0.49 Mcps; in test [2] (KGlu buffer), 1.4 Mcps.
As to wild-type FUS 10D/4E-G, the response in test [3] (KCl buffer) was 3.2 Mcps; in test [3] (KGlu buffer) it was 3.8 Mcps.
As to wild-type FUS 10Y-S, the response in test [4] (KCl buffer) amounted to 0.81 Mcps; in test [4] (KGlu buffer) it was 1.9 Mcps.
On to wild-type FUS 18Y-S, for which the response came to 0.79 Mcps in [5] (KCl buffer) and 1.3 Mcps in test [5] (KGlu buffer).
For the molecule wild-type FUS 24R-G, the response in test [6] (KCl buffer) stood at 1.2 Mcps; in test [6] (KGlu buffer) it was 1.8 Mcps.
For the molecule wild-type FUS 24R-K, the response in test [7] (1 µM FUS (24R-K), KCl buffer) is 0.13 Mcps; in test [7] (1 µM FUS (24R-K), KGlu buffer) it was 1.9 Mcps; in test [7] (2 µM FUS (24R-K), KCl buffer) it was 0.32 Mcps; in test [7] (2 µM FUS (24R-K), KGlu buffer), 2.4 Mcps; in test [7] (3 µM FUS (24R-K), KCl buffer) it was 1.1 Mcps; in [7] (3 µM FUS (24R-K), KGlu buffer), 3.8 Mcps. Further, the response in [7] (4 µM FUS (24R-K), KCl buffer) was found to be 1.4 Mcps; in test [7] (4 µM FUS (24R-K), KGlu buffer), 3.9 Mcps.
With wild-type FUS 27Y-S, the response in test [8] (KCl buffer) was 0.74 Mcps; in [8] (KGlu buffer), 0.86 Mcps.

B1: SNAP-tagged FUS (Fused in Sarcoma), P35637 1-526 (natural protein)
chain: T1 chain
modifications: here or on the partner: AF488 or AF647 label on the copies used in smFRET and FCS (FUS-SNAP-AF488, FUS-SNAP-AF647); unlabelled in DLS and NTA; AF488 or AF647 label on the copies used in smFRET and FCS (FUS-SNAP-AF488, FUS-SNAP-AF647); unlabelled in DLS and NTA
Turning to B1, the relative abundance of mesoscale clusters (100 mM KCl) in test [9] lay within 0.2 to 0.4%.
